Legend:
HLA-A*23:01 = test: IEDB peptide-MHC binding, purified MHC/competitive/radioactivity; filed as Kd, often an IC50 or EC50 that approximates it; ≥ and ≤ were set here for values at or beyond the usual limits of such assays
HLA-A*24:02 [1] = test: IEDB peptide-MHC binding, purified MHC/competitive/fluorescence; ≥ and ≤ were set here for values at or beyond the usual limits of such assays
HLA-B*15:01 = test: IEDB peptide-MHC binding, purified MHC/competitive/radioactivity; filed as Kd, often an IC50 or EC50 that approximates it; ≥ and ≤ were set here for values at or beyond the usual limits of such assays
HLA-B*07:02 = test: as above
HLA-B*51:01 = test: as above
HLA-B*44:03 = test: as above
HLA-A*29:02 = test: as above
HLA-A*30:02 = test: as above
HLA-A*24:02 [2] = test: as above
HLA-A*01:01 = test: as above
HLA-A*26:01 = test: as above
HLA-B*44:02 = test: as above
HLA-B*40:01 = test: as above
HLA-A*02:01 = test: IEDB peptide-MHC binding, purified MHC/competitive/fluorescence; ≥ and ≤ were set here for values at or beyond the usual limits of such assays; conditions: source organism: Vaccinia virus
[3] = source organism: Dengue virus 4 Philippines/H241/1956
[4] = source organism: Vaccinia virus WR
[5] = source organism: Dengue virus 2 Jamaica/1409/1983
[6] = source organism: Dengue virus 1 Brazil/97-11/1997
[7] = source organism: SARS coronavirus Tor2
[8] = source organism: Sudan ebolavirus
[9] = source organism: Mammarenavirus brazilense
[10] = source organism: Dengue virus 3 Martinique/1243/1999
[11] = source organism: Mammarenavirus juninense
[12] = source organism: Dengue virus 1 Singapore/S275/1990
[13] = source organism: Dengue virus 4 Dominica/814669/1981
[14] = source organism: Zaire ebolavirus
[15] = source organism: Dengue virus 2 Peru/IQT2913/1996
[16] = source organism: Vaccinia virus
[17] = source organism: Lymphocytic choriomeningitis virus (strain Armstrong)
[18] = source organism: Mammarenavirus whitewaterense

MGLLCLTLF
Kd (HLA-A*23:01; [3]): 0.451 µM

MILPMSRAF
IC50 (HLA-A*24:02 [1]; source organism: Mus musculus): 1.75 µM

MLIEVILTA
Kd (HLA-B*15:01; [4]): 0.207 µM

MMIDDFGTA
Kd (HLA-B*15:01; [4]): 0.0076 µM

MPVTHSSAAQ
Kd (HLA-B*07:02; [5]): ≥ 20.1 µM
Kd (HLA-B*51:01; [5]): ≥ 69.6 µM

NEVHTWTEQY
Kd (HLA-B*44:03; [6]): 0.137 µM

NIDATSTGNY
Kd (HLA-A*29:02; [7]): 5.52 µM
Kd (HLA-A*30:02; [7]): 1.42 µM
Kd (HLA-A*24:02 [2]; [7]): ≥ 70.3 µM
Kd (HLA-A*01:01; [7]): 0.11 µM
Kd (HLA-A*23:01; [7]): ≥ 70 µM
Kd (HLA-A*26:01; [7]): 0.897 µM

NRKAIDFLL
IC50 (HLA-A*24:02 [1]; [8]): ≥ 72.4 µM

NYMPYVFTLL
Kd (HLA-A*29:02; [7]): 0.128 µM
Kd (HLA-A*30:02; [7]): 2.55 µM
Kd (HLA-A*24:02 [2]; [7]): 0.00103 µM
Kd (HLA-A*01:01; [7]): ≥ 40.5 µM
Kd (HLA-A*23:01; [7]): 0.00111 µM
Kd (HLA-A*26:01; [7]): ≥ 69.7 µM

PKAQREIFS
IC50 (HLA-A*24:02 [1]; source organism: Variola virus): 30.1 µM

PYLKATKQI
Kd (HLA-A*29:02; [9]): ≥ 78.9 µM
Kd (HLA-A*24:02 [2]; [9]): 0.564 µM
Kd (HLA-A*23:01; [9]): 0.131 µM

QQMDPEHRQL
Kd (HLA-B*15:01; [10]): 0.118 µM

QTWMSAEGAW
Kd (HLA-B*44:02; [10]): 11.9 µM

QWFFDLPLPW
Kd (HLA-B*44:03; [10]): 2.64 µM
Kd (HLA-A*24:02 [2]; [10]): 0.0748 µM
Kd (HLA-A*23:01; [10]): 0.0147 µM

QWSLFFFVY
Kd (HLA-A*29:02; [7]): 0.0134 µM
Kd (HLA-A*30:02; [7]): 1.37 µM
Kd (HLA-A*24:02 [2]; [7]): ≥ 44.4 µM
Kd (HLA-A*01:01; [7]): 8.06 µM
Kd (HLA-A*23:01; [7]): ≥ 77.8 µM
Kd (HLA-A*26:01; [7]): 17.6 µM

RCWLIKNNSY
Kd (HLA-A*29:02; [11]): ≥ 29.1 µM
Kd (HLA-A*30:02; [11]): 0.00991 µM
Kd (HLA-A*24:02 [2]; [11]): ≥ 70.3 µM
Kd (HLA-A*01:01; [11]): ≥ 30.6 µM
Kd (HLA-A*23:01; [11]): ≥ 70 µM
Kd (HLA-A*26:01; [11]): ≥ 69.7 µM

RPGYFTQTA
Kd (HLA-B*07:02; [6]): 0.00478 µM

RQMEGEGVL
Kd (HLA-B*15:01; [10]): 0.0188 µM
Kd (HLA-B*40:01; [10]): 0.0435 µM

RSNAALGAIF
Kd (HLA-B*07:02; [5]): 0.184 µM
Kd (HLA-A*30:02; [5]): 3.42 µM
Kd (HLA-B*15:01; [5]): 0.0411 µM

SEAVNDSRF
Kd (HLA-B*44:03; [3]): 0.0666 µM
Kd (HLA-B*44:02; [3]): 0.0179 µM

SEMIIPKIYG
Kd (HLA-B*44:03; [12]): 0.0188 µM
Kd (HLA-B*44:02; [12]): 0.00953 µM

SIGKMFESTY
Kd (HLA-A*30:02; [13]): 0.0374 µM
Kd (HLA-A*01:01; [13]): 17 µM

SPMLYQLLE
IC50 (HLA-A*24:02 [1]; source organism: Vaccinia virus Copenhagen): 64.6 µM

SPSVEVKLPD
Kd (HLA-B*07:02; [3]): 0.205 µM

SYSLFDMSKF
Kd (HLA-A*29:02; [7]): 0.677 µM
Kd (HLA-A*30:02; [7]): 0.77 µM
Kd (HLA-A*01:01; [7]): ≥ 25.1 µM
Kd (HLA-A*23:01; [7]): 0.0497 µM
Kd (HLA-A*26:01; [7]): 6.12 µM

SYYATSYLE
IC50 (HLA-A*24:02 [1]; [8]): 4.36 µM

TEMGRLPTF
Kd (HLA-B*44:03; [5]): 0.024 µM
Kd (HLA-B*44:02; [5]): 0.01 µM

TFSIPLGVI
IC50 (HLA-A*24:02 [1]; [14]): 0.0849 µM

TKKNLTRKI
IC50 (HLA-A*24:02 [1]; [14]): ≥ 155 µM

TMKHKKATY
Kd (HLA-A*30:02; [5]): 1.2 µM
Kd (HLA-B*15:01; [5]): 0.0834 µM

TMRHKKATY
Kd (HLA-A*30:02; [15]): ≥ 76.9 µM
Kd (HLA-B*15:01; [15]): 0.442 µM

TPEAKNSTFL
Kd (HLA-B*07:02; [3]): 1.37 µM

TPEGEVGAIA
Kd (HLA-B*07:02; [6]): 14.7 µM

TPKGTVMDII
Kd (HLA-B*07:02; source organism: Dengue virus 3 Singapore/8120/1995): 0.608 µM

TPQASTTEAI
Kd (HLA-B*07:02; [10]): 0.0453 µM
Kd (HLA-B*51:01; [10]): ≥ 22.9 µM

TRAADEPPL
IC50 (HLA-A*02:01): ≥ 1400 µM
IC50 (HLA-A*24:02 [1]; [16]): ≥ 169 µM

VEDEEFWKL
Kd (HLA-B*40:01; source organism: Dengue virus 3 Sri Lanka/1266/2000): 0.0181 µM

VERAVLDDGI
Kd (HLA-B*40:01; [6]): 1.68 µM

VIIHVIEHL
Kd (HLA-B*15:01; [4]): 1.19 µM

VPFCSHHFHQ
Kd (HLA-B*07:02; [6]): ≥ 20.9 µM
Kd (HLA-B*51:01; [6]): ≥ 69.6 µM

VYFESFVREF
Kd (HLA-A*29:02; [17]): 0.184 µM
Kd (HLA-A*24:02 [2]; [17]): 0.0597 µM
Kd (HLA-A*23:01; [17]): 0.00889 µM

WEGSPGKFW
Kd (HLA-B*44:03; [6]): 0.0535 µM
Kd (HLA-B*44:02; [6]): 0.0244 µM

WYMWLGARFL
Kd (HLA-A*24:02 [2]; [5]): 0.00633 µM
Kd (HLA-A*23:01; [5]): 0.0491 µM

YENLKYSVI
Kd (HLA-B*44:02; [6]): 0.0902 µM

YFIKHVLAF
Kd (HLA-B*15:01; [4]): 0.00253 µM

YLAGAGLLF
Kd (HLA-B*15:01; [5]): 0.00186 µM
Kd (HLA-A*24:02 [2]; [5]): 0.0285 µM
Kd (HLA-A*26:01; [5]): 2.13 µM

YLLFGIKCI
IC50 (HLA-A*24:02 [1]; [16]): 7.15 µM

YPALMPLY
Kd (HLA-B*07:02; source organism: Hepatitis B virus): ≥ 10 µM

YSQIGAGVY
Kd (HLA-A*30:02; [5]): 0.00203 µM
Kd (HLA-B*15:01; [5]): 0.0156 µM
Kd (HLA-A*01:01; [5]): 0.0634 µM

YYGLVTEQF
Kd (HLA-A*29:02; [18]): 0.0955 µM
Kd (HLA-A*24:02 [2]; [18]): 0.00327 µM
Kd (HLA-A*23:01; [18]): 0.00147 µM

— the Immune Epitope Database (IEDB)
